Source: patent publication US7393670B2, “Tyrosyl-tRNA synthetase variants” (Japan Science and Technology Agency, priority 2001, dated 2008)

Key:
Type in all cases: biochemical
[1] = tested on: wheat germ cell-free translation system; assay: Amber suppression in wheat germ cell-free protein synthesis system (c-H-Ras, 32nd codon amber)
Text: Production of the protein containing iodotyrosine was attempted by the reaction by a batch method in a wheat germ cell-free protein synthesis system using the resultant VC and an amber suppressor tRNA derived from tyrosine tRNA of E. coli. A short chain type of c-H-Ras added His-tag at the C-terminus via a spacer sequence (Milburn et al., Science 247:939-45, 1990) was used as the target protein. In translation where the template was mRNA made from a construction where the 32nd codon of this protein was replaced by the amber codon, the production of the protein in full length was dependent on coexistence of both TyrRS and the suppressor tRNA (FIG. 2). This proves that the suppressor tRNA used is scarcely aminoacylated by the endogenous aminoacyl-tRNA synthetase in the wheat germs. A synthetic quantity by the amber suppression was 30 to 40% of that of a control with no amber codon. In order to increase the synthetic quantity of the protein, the reaction by the suppression was carried out for 3 days using a dialysis method. […]
The translation reaction was carried out by further adding iodotyrosine at a final concentration of 0.6 mM in addition to the condition of the kit. […] Using an image analyzer FLA-2000 (Fujifilm, Tokyo, Japan), counts of RI of bands on the gel were quantified, or protein bands stained using Cypro-tangerine protein gel stain (Molecular probes) on the gel were quantified.

[2] = tested on: wheat germ cell-free translation system; assay: LC-MS analysis of K3 fragment of Ras translation products; details: absorbance of chromatogram
Procedure: It was examined by mass spectrometry that iodotyrosine was actually inserted at the position corresponding to the amber codon of the peptide chain. Ras protein purified using nickel beads was applied on SDS-PAGE. A band corresponding to a mobility of Ras among stained product bands was cut out and treated with peptidase. A resultant fragment was analyzed by LC-MS (liquid chromatography—mass spectrometry). The 32nd codon of Ras protein used as a reporter protein is the codon for tyrosine. […] Among the fragments obtained by digesting the translation products, the fragment including the 32nd amino acid from N-terminus (Ser 17 to Lys 42, referred to as K3 fragment) was focused and analyzed. […] No K3 fragment was detected where the other amino acid was accidentally inserted at the site corresponding to the amber codon. The ratio of iodotyrosine to tyrosine inserted to the amber codon was examined by absorbance of chromatogram. […] On the other hand, no fragment having the mass corresponding to the case encompassing iodotyrosine in place of tyrosine was detected in the analysis of the translation products from mRNA which contained no amber codon. […]
It was examined by mass spectrometric analysis that iodotyrosine was actually inserted at the position corresponding to the amber codon of the peptide chain. […] Elutes were analyzed by Finnigan LCQ ion trap mass spectrometer using ESI probe. […]

[3] = Aminoacylation reaction, simplified Lloyd's method, inorganic phosphate detected with Biomol green; parameters: key: ***: the reaction could be detected strongly at 25 nM; **: strongly at 250 nM; *: weakly at 250 nM; the activity is high in the order of *** > ** > * > —; details: Table 3; tyrosine 200 μM; 37° C. for 4 min
Procedure: In the first method, Lloyd's method (Nucleic Acids Research, 23:2886-2892, 1995) where inorganic phosphate produced by pyrophosphatase-drived hydrolysis of pyrophosphate which was one of the reaction products of the aminoacylation reactions was quantified was simplified, and the inorganic phosphate was detected using Biomol green (Funakoshi) to carry out the measurement of the aminoacylation reaction.
Amino acid concentrations were 200 μM and 1 mM for tyrosine and 3-iodotyrosine, respectively.
The method where the aminoacylation reaction is measured by quantifying inorganic phosphate produced by pyrophosphatase-drived hydrolysis of pyrophosphate which is one of reaction products of the aminoacylation has been described by Lloyd et al. (Nucleic Acids Research, 23:2886-2892, 1995). In one method of the invention, this method was simplified and the aminoacylation reaction was measured by the detection of inorganic phosphate using Biomol green (Funakoshi). […] To stop the reaction, 0.1 ml of Bio mol green was added. Absorbance of its supernatant was measured at 630 nm.

B1: VC: E. coli TyrRS double variant: position 37 Valine, position 195 Cysteine (protein, UniProt P0AGJ9 2-424, looked up, variant Y37V Q195C)
Tyrosine--tRNA ligase: ASSNLIKQLQERGLVAQVTDEEALAERLAQGPIALVCGFDPTADSLHLGHLVPLLCLKRFQQAGHKPVALVGGATGLIGDPSFKAAERKLNTEETVQEWVDKIRKQVAPFLDFDCGENSAIAANNYDWFGNMNVLTFLRDIGKHFSVNQMINKEAVKQRLNREDQGISFTEFSYNLLQGYDFACLNKQYGVVLCIGGSDQWGNITSGIDLTRRLHQNQVFGLTVPLITKADGTKFGKTEGGAVWLDPKKTSPYKFYQFWINTADADVYRFLKFFTFMSIEEINALEEEDKNSGKAPRAQYVLAEQVTRLVHGEEGLQAAKRITECLFSGSLSALSEADFEQLAQDGVPMVEMEKGADLMQALVDSELQPSRGQARKTIASNAITINGEKQSDPEYFFKEEDRLFGRFTLLRRGKKNYCLICWK
For B1, the “amber suppression (full-length translation product, SDS-PAGE)” value ([1]; FIG. 2, 14C-leucine labeled products) was “amber suppression was observed only when both TyrRS-VC variant and suppressor tRNA were present”, the “quantity of the production of protein” value ([1]; dialysis method, 3 days) was ≥ 0.1 mg per ml of reaction solution and the “K3 fragments encompassing iodotyrosine by the amber suppression” value [2] was ≥ 95%. The “ratio of tyrosine insertion at the amber codon” value [2] was ≤ 5% and the “Aminoacylation activity, Tyrosine” value [3] was “*”.
